{"source": "paper PMC9849996", "origin": "cited, not measured here", "molecular_target": "ROS-GC1 (Bos taurus) (UniProt P55203)", "sequence (P55203 57-1110)": "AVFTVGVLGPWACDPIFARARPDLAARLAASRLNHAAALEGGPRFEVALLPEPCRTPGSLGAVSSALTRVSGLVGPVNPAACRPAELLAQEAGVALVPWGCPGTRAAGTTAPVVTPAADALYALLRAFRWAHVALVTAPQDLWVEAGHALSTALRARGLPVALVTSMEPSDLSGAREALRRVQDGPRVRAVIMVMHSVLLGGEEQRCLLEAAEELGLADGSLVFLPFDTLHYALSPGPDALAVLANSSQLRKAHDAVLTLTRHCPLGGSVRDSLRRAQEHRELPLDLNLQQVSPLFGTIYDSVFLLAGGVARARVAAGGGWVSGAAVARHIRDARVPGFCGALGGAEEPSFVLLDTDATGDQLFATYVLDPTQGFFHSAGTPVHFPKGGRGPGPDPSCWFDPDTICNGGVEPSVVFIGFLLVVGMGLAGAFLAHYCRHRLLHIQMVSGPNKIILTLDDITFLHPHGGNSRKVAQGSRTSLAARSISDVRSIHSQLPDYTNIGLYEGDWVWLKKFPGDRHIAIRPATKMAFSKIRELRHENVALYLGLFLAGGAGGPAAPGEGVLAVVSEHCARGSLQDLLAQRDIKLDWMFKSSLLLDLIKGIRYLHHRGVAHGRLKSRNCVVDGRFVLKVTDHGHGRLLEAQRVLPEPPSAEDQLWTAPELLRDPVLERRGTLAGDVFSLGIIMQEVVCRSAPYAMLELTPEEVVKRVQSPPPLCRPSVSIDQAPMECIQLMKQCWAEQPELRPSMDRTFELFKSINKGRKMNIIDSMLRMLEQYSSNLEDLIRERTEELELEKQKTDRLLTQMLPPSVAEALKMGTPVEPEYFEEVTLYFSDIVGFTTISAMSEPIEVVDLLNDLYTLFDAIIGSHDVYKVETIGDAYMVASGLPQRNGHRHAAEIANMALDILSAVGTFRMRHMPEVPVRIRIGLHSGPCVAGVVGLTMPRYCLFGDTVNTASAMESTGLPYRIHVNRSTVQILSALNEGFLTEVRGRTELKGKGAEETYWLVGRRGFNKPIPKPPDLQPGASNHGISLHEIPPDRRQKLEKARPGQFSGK", "test": "SPR; given as Ka"}
{"substance": "frequenin (from UniProt Q2V8Y7)", "values": [{"measurement": "Kd", "value": 426, "unit": "nM"}]}
